Here are results for one molecule from paper PMC9769388 (Journal of Virology, 2022).

The experiment addresses T1, soluble CD4 (D1D2 domains, residues 1 to 186).
T1 construct: also called sCD4; source: Expi293F, purified (StrepTrap HP, SEC)
Put plainly: cryo-EM structure; Fab, soluble SOSIP trimer and sCD4 incubated at a molar ratio of 3.6:1:3.6 Fab/Env/sCD4 at room temperature for 4 h; single-particle cryo-EM of the ternary complex. To be noted: both partners purified.

B1: CG10 Fab (Fab, V domains shown)
VH: QVQLKQSGTELVRPGTSVKMSCKAAGYTFTDYWIGWVKQRPGHGLEWIGDFYPGGDYTLYSENFMGKASLTADTSSNTAYMQLSSLTSEDSAIYYCARGHYYGYSYAWFAYWGQGTLVTVSS
VL: DIVLTQSPASLAVSLGQRATISCKASQSVDYDGDSYMNWYQQKPGQPPKLLIYAASNLESGIPARFSGSGSGTDFTLNIHPVGEEDAATYYCQQSHEDPWTFGGGTMLEIK
notes: source: Expi293F, purified (Ni-NTA, SEC)
For the molecule B1, the binding result was “binds”.
